Assay: soluble on expression in E. coli; label from the status in PepcDB or PDB records

Sequence | soluble on expression in E. coli
MADDGPIIEEIAEKNGRVARIMQRLQHDTQRVTSVPGFNTSATGYADLIALLDQYKNDLEAVGFNDLEQARRRAPSVDITVGSNSTNLVDYSHGRHDMPSHRRHDSSDEEITAANSHHQSPINVGNRNDTDGTNGRNGSRAGSSSSDRVRMIAGRNRISKTRRYRPGQKALEEIRKYQESEDLLIPKAPFARLVREIMQTSTPFSSDLRIRSDAINALQEASEALLVQMFDGSSLISAHSKRATLTTTDVQLYRRLCLPNL | not soluble
MGSDKIHHHHHHMRVLFVAPNYYPHIGGVERHVREVSLELQKDGHSITILVPKHDSSYGDFEREGNIEVVRLNKPQTKLFTGLERVLQVAGVSGRFLKADIVNFHDVATMWRYGLWIYPILRVLGKKVYITFHGWEGHFPPKDKIVARRKLAARLADGTMCVGHFIEKWYGTRADVVTYGGVHRSSLPEAHENSVVFVGRLAKDSGIDSYLRAWEWIVRDHPELRLVICGDGAMKKELEDFVCHTGLRNVEFLGLVENPLPYVTDAKVVFTSGYLGILEAFSRKKPVVAVYDNELKKDYLEMMPDSRRLMWIARDSKEVARCVDEALLDREKTERAYRYSLENSWTKVKEDYYRLWNVDGEHGESHGGRGR | not soluble
MGMRLICLNGWGGKLHDKLVPYIASSDPDILCLQEVVHTPAATQDWLSYRDHGVELPQRANFFRDVAEALPDHVAIFCPAAQGDLWQGETRYPSQFGLATFVRKSIAIIAQAQGFVHGVFSADGYGNHPRSRTAHAIRVFDFTTGQPVVIAHMHGLRDLEGKHDIPARLHQAKRLVQFVKNIAEDGDRVIVCGDFNVLPDSRTFAVLNELDLVELVTTRGFTDTRTSHYAKPNRYADYLLVNPAVKVSQFDVVRQPEVSDHCPLLLEFSMAGDPLEHHHHHH | not soluble
MFIAGYIEKPERGKDIILTEKGRISNEKFFPTLEEKRLIDQYWKNKSELRKARKKANSIIDDSTSTKAVEIDENSGDSDWKTELIDQLKKFSPGKFESFSRLLISKMGVRIDNQRGIIRSGDHSIDGFGYFQSDEFRTSRVAIQAKRFTNGSVGEPEIDKFKGVMDSFNAEYGIFITTSYFTDQAKEKAVVGNNSVTLIDGIKLASLVQKYQLRV | not soluble
GMSDPRTQPLEIRPLMISRVMEVDWADGHTSRLTFEHLRVECPCAECKGHTPDQAQIVTGKEHVSVVEVVPVGHYAVQLHFSDGHNTGIFTWEYLRRLDAE | soluble
MGSDKIHHHHHHMTSILPLPDPQPSDATNTDTSSLNWEEELDSAIFSFEDIQAELNYKQAQSALRNLVGNIDLSSQEKAGLESEIADLETMLGKLDSMVVQIAAFGMVGRGKSSLLNALVGESVFETGPLHGVTRAAQRVNWRISEEAIGETERALRVTLPSVGRSQVELIDTPGLDEIDGETRTALAEQIAKQADLILFVISGDMTKIEHEALSQLREAGKPIILVFNKVDQYPEADRMAIYQKIRDERVRELLTPLEIVMAAASPLVKTAVRRPDGSRGVQVRTGNAQVAELQVKILEILQREGKALVALNTMLFADNVNEQLVQRKLMIREQNANQLIWKAVMTKAVAIALNPVTVVDILSSIVIDVSLILGLSKLYGIPMTEAGAVQLLQKIALSMGGIGVSELLANLGLSGLKTLLGISATATAGVAIGPYISVALTQAGVAGVSSYAIGQVTTVYLANGATWGPDGPKAVINRILSTLDENSILNRIKDELQVKLRRE | not soluble
MTPPADETRLFECVTCGGVGIGDNRPTCCGEPMAATETGDTAVSEPSLETLLKTVFDMSGTELDICLCVMEGGELTVAALAEQIGYDRSVVARHLNHLAAFGVVEKRRRIRPEGGHVYVYTPQPPEVVRERLREEFLSWVRLATAQLDDLQREKVEAIADAKTDERQWTVFQEQ | not soluble
MKFLPLLALLISPFVSALTLDDLQQRFTEQPVIRAHFDQTRTIKDLPQPLRSQGQMLIARDQGLLWDQTSPFPMQLLLDDKRMVQVINGQPPQIITAENNPQMFQFNHLLRALFQADRKVLEQNFRVEFADKGEGRWTLRLTPTTTPLDKIFNTIDLAGKTYLESIQLNDKQGDRTDIALTQHQLTPAQLTDDERQRFAAQ | not soluble
MAKGDPKKPKGKMSAYAFFVQTCREEHKKKNPEVPVNFAEFSKKCSERWKTMSGKEKSKFDEMAKADKVRYDREMKDYGPAKGGKKKKDPNAPKRPPSGFFLFCSEFRPKIKSTNPGISIGDVAKKLGEMWNNLNDSEKQPYITKAAKLKEKYEKDVADYKSKGKFDGAKGPAKVARKKVEEEDEEEEEEEEEEEEEEDE | soluble
AVCDTPHERLTILYTKILDLLKHFPKHAAYRKYTEQITSEKLELVKLEPDVKKLENLLQGG | soluble
MNKLQSYFIASVLYVMTPHAFAQGTVTIYLPGEQQTLSVGPVENVVQLVTQPQLRDRLWWPGALLTDSAAKAKALKDYQHVMAQLASWEAEADDDVAATIKSVRQQLLNLNITGRLPVKLDPDFVRVDENSNPPLVGDYTLYTVQRPVTITLLGAVSGAGQLPWQAGRSVTDYLQDHPRLAGADKNNVMVITPEGETVVAPVALWNKRHVEPPPGSQLWLGFSAHVLPEKYADLNDQIVSVLTQRVPD | not soluble
GSHMIDVPIPRFAVGIVIGRNGEMIKKIQNDAGVRIQFKPDDGTTPERIAQITGPPDRAQHAAEIITDLLRSVQAGNPGGPGPGGRGRGRGQGNWNMGPPGGLQEFNFIVPTGKTGLIIGKGGETIKSISQQSGARIELQRNPPPNADPNMKLFTIRGTPQQIDYARQLIEEKI | soluble
MGSDKIHHHHHHMLCSVIQRQTREVSNTMSLDSYYLGFDLSTQQLKCLAINQDLKIVHSETVEFEKDLPHYHTKKGVYIHGDTIECPVAMWLEALDLVLSKYREAKFPLNKVMAVSGSCQQHGSVYWSSQAESLLEQLNKKPEKDLLHYVSSVAFARQTAPNWQDHSTAKQCQEFEECIGGPEKMAQLTGSRAHFRFTGPQILKIAQLEPEAYEKTKTISLVSNFLTSILVGHLVELEEADACGMNLYDIRERKFSDELLHLIDSSSKDKTIRQKLMRAPMKNLIAGTICKYFIEKYGFNTNCKVSPMTGDNLATICSLPLRKNDVLVSLGTSTTVLLVTDKYHPSPNYHLFIHPTLPNHYMGMICYCNGSLARERIRDELNKERENNYEKTNDWTLFNQAVLDDSESSENELGVYFPLGEIVPSVKAINKRVIFNPKTGMIEREVAKFKDKRHDAKNIVESQALSCRVRISPLLSDSNASSQQRLNEDTIVKFDYDESPLRDYLNKRPERTFFVGGASKNDAIVKKFAQVIGATKGNFRLETPNSCALGGCYKAMWSLLYDSNKIAVPFDKFLNDNFPWHVMESISDVDNENWDRYNSKIVPLSELEKTLI | not soluble
MSLFPILETDRLILRQITDQDAEAIFACFSNDEVTRYYGLENMESIEQAISMIQTFAALYQEKRGIRWGIERRDTKELIGTIGFHALAQKHRRAEIGYEIIPEHWRNGFASEVISKVVSYGFSALGLSRIGAVVFTDNEASNRLLLKMGFQKEGVLRQYMYSKWDSIEGGSHHHHHH | soluble
MPEDILVDIKRDYVLSKLRDNERIDGRGFDEFRKVEIIPNVIEKAEGSALVKLGDTQVVVGVKMQPGEPYPDTPDRGVIIVNAELVPLASPTFEPGPPDENSIELARVVDRGIRESEAVDLSKLVIEEGEKVWIVFVDIHALDDDGNLLDASALAAIAALMNTKVPAERFDLGEDYLLPVRDLPVSVTSLIVGNKYLVDPSREEMSVGDTTLTITTDKDDNVVAMQKSGGYLLDEKLFDELLDVSINCARKLREKFKEI | soluble
DDYDQSLCSTGFYVVRSNQINPETLLTLFKSLPIQQLLKKACSGTILTGIGKQEFEKIPIPLIRPEVQEEIAQHVQRSFALRKEASELLEKAKLSVEYAIETGGGNSLIYSGLLNTLAKYERLAMWLLLKELGIVDESPNRQRVVTTEKRLSESFFTSGRLDAEYYQPKYDYLDAQFSSIPTKRLGDIVNIHKSIEPGSDAYQENGIPFVRVADLSKFGIETSSICLDSSTYSTAPRPRKNTILLSKDGSVGIAYKMEEDADIITSGAILHLSMKGKELLPDYLTLVLNSPIVRMQAERDAGGSIIQHWKPSEISQVIIPMLPVYIQQKLSDLVSKSFAFRRESKALLERAKAMVEQAIEFSA | not soluble
MGSDKIHHHHHHMCYNNSMNERYIRFNPNIAKQKPSNKDKCPFCDKSQLGKILDVKDDMIWVENKYPTLEETYQTLVIESNDHNGDISVYSESKMRQLLDYLLSKWQLMEESGHYRSVVLYRNFGPLSGGSLRHPHSQIVGLKNVDAYETLNLDWFDGIEVCSETSQQAEISIANRPMLDFTEFTIKVSKLENAILIADSLPILCHYILNEFLGGRCKSYNLFFYKHDGGLICKIVPRFIVSPYQIGYAIHQVNLPDELEKIKEALRAKYYL | not soluble
MVYDDANKKWVPAGGSTGFSRVHIYHHTGNNAFRVVGRKIQDHQVVINCAIPKGLKYNQATQTFHQWRDARQVYGLNFGSKEDASVFASAMMHALEVLNSQDAGEKALFTAGCEV | soluble
MSLRRSLLLVDDDADHLAVLRCTLESCGFDVSLAPDGAAALALAHARAFDAVVLDIAMPGLSGWEVAERLRAAHGQSFRLVMLSANAEERHGPRGKEPDHDLFLMKPVELSALVDSLGKLLGLEWILSEGGGDTVLAQPRIDVSDSARTHVDRLKSLARIGHLRGLEAEIRSMQETDTGTAPLAARLFDCLDRCDLVAMRRVLEGIEGHHHHHH | not soluble
MTRHLAGSFASPPGAEAEGGPVRVTALRAQAFHIPTDLPEADGTFAWNATTLVLVEVEAGGQTGIGYTYSDASIVRLIHHTLAACVIDADAWQVGALWLRMQRQVRNPGRAGLAATAISAVDCALWDLKAKLLGVPLVTLLGAQRANVPIYGSGGFTTYTDEQLREQLVRWVAQDGCRWVKMKIGTHPQEDPQRVAAARAAIGDAGLFVDANGAFSVKEALHYARAFAEQGVEWFEEPVSSDDLRGLALLRERAPARMEIAAGEYAYTLDDFRLLLEAHAVDVLQADVSRCGGVTGFLQAAALCEAFHVPLSAHCAPALHLHVASAVRNLRHQEWFHDHVRIEAMLFDGAPRPSNGAIAPDMARPGCGLAFRHGDAQRYLIH | soluble
MSLKRMVNVLFAGVLAMTVLSCGEEKKGYTLNGEISDVKDGMVYLKKYQDKSFIAVDSAVITDGTFKFEGVCTEPLAYGLTTFRDSKRPLVFFLDNEKMQLKMNESEKILTVTGSAINDLYAQNAPLTRQDGYSIDSLVAVHPASAVTPYFIVKDFAYKLNLEEMKALRAKLDASLDETMYVSQIDGFIKRMKDIQVGAVAPDFTLPDVDGNPVTLSGLRGKYVLIDFWASWCPDCRKENPNIVAAWNKYKDKNFTILGVSLDRKKEPWLAAIEKDQLAWTHVSDLKDWKSDAAVQYAIRWIPMNFLLDPNGVILAVGLEGEALQQKLDEVLKEGHHHHHH | not soluble
MSLFIPKRVIFEKDSLDYEAAKNILNKFKDKKDVEIINITSNKLKQHIPGEDFYAQYREGKKTLVVGTKKSLKFQSCKPSAHYQLPLISGCMGQCEYCYLNTKLGDKPFVKVHVNIDEILSQAQKYIDERLPEITIFEGAATSDPIPVEPYTHSLEKAIVFFGKHENARFRFVTKYNDIDSLLDLEHNGHTEMRFSINTSSVINKYEHATASRDLRIEASIKAAKAGYPIGFLVAPVFIYPNWKEEYHDLLLSLSKNLPRDLKTPVTFEIISHRYTSTAKNIILQVFPESELPMSDEERKFKYGQFGYGKYVYPKENIDEMKQFFIKEIEDLFENKEIKYVIEGHHHHHH | soluble
MATPFDGSNDATESRLLQLGRERLDPILAQQSDALQTQLSNQGIKLGSAAYDRAMTQQALHANDATDQLILQGHGQAFAEGQAIRNQPINEITALLSGSQVSNPQAAAYTPSTIPTTDNAGIIANNYQQKMDAYNAQMSQASSLAGGLFGLGGKLISLSDDDAKKDKERLADITPEMGLWKFHYKGEPADAPMRLGLMASEVEKVRPDAVSRRPDGYRQVDYGKALSLGALEHHHHHH | not soluble
